We go through one substance from PMC12713027.

The target in this test is NAA15-mCherry (rice (Oryza sativa, japonica cultivar Zhonghua 11)). Put plainly: FRET or BRET; FLIM-FRET in rice protoplasts, donor NAA10-eGFP and acceptor NAA15-mCherry co-expressed with pRTV-RESIS, 16 h after transfection.

NAA10-eGFP (natural protein) displayed a mean fluorescence lifetime of the donor (co-expressed with RESIS) of 2.45 ns.
